Results taken from paper PMC5586342, “Mouse glutamate carboxypeptidase II (GCPII) has a similar enzyme activity and inhibition profile but a different tissue distribution to human GCPII” (FEBS Open Bio, 2017).
Where two headings read alike, the source gives them in different places. Values belong to the molecule of their own block, whether it stands above or below them.

Columns and labels:
[1] = target: T1, Avi-mGCPII (recombinant extracellular mouse GCPII) (Mus musculus, UniProt O35409); assay: HPLC assay of pteroyl-di-L-glutamate cleavage; type: biochemical; conditions: for Ki: read-out: K i (Avi-mGCPII)
T1 construct: gene Folh1; extracellular domain (45-752), N-terminal biotinylated Avi-tag with TEV site, secreted from Drosophila S2 cells, streptavidin mutein purification
Excerpt: HPLC assay of pteroyl-di-L-glutamate cleavage on Avi-mGCPII (recombinant extracellular mouse GCPII)

[2] = target: T2, Avi-hGCPII (recombinant extracellular human GCPII) (Homo sapiens, UniProt Q04609); assay: HPLC assay of pteroyl-di-L-glutamate cleavage; type: biochemical; conditions: for Ki: read-out: K i (Avi-hGCPII)
T2 construct: gene FOLH1
Excerpt: HPLC assay of pteroyl-di-L-glutamate cleavage on Avi-hGCPII (recombinant extracellular human GCPII)

[3] = test system: CC(=O)N[C@@H](CC(=O)O)C(=O)N[C@@H](CCC(=O)O)C(=O)O; assay: radioenzymatic assay; type: biochemical, Homo sapiens; conditions: […] Bis-Tris propane, […] NaCl, pH […]
Excerpt: radioenzymatic assay on Avi-hGCPII (recombinant extracellular human GCPII)

radioenzymatic assay = substrate: CC(=O)N[C@@H](CC(=O)O)C(=O)N[C@@H](CCC(=O)O)C(=O)O; assay: radioenzymatic assay; type: biochemical, Mus musculus; conditions: […] Bis-Tris propane, […] NaCl, pH […]
Excerpt: radioenzymatic assay on Avi-mGCPII (recombinant extracellular mouse GCPII)

HPLC assay = substrate: Nc1nc2ncc(CNc3ccc(C(=O)N[C@@H](CCC(=O)N[C@@H](CCC(=O)O)C(=O)O)C(=O)O)cc3)nc2c(=O)[nH]1; assay: HPLC assay; type: biochemical, Mus musculus; conditions: […] Bis-Tris propane, […] NaCl, pH […]
Excerpt: HPLC assay on Avi-mGCPII (recombinant extracellular mouse GCPII)

[4] = substrate pteroyl-di-L-glutamate ([…] final), […] Bis-Tris propane, […] NaCl, pH […] °C

T2 sequence (Q04609 44-750 limits assumed): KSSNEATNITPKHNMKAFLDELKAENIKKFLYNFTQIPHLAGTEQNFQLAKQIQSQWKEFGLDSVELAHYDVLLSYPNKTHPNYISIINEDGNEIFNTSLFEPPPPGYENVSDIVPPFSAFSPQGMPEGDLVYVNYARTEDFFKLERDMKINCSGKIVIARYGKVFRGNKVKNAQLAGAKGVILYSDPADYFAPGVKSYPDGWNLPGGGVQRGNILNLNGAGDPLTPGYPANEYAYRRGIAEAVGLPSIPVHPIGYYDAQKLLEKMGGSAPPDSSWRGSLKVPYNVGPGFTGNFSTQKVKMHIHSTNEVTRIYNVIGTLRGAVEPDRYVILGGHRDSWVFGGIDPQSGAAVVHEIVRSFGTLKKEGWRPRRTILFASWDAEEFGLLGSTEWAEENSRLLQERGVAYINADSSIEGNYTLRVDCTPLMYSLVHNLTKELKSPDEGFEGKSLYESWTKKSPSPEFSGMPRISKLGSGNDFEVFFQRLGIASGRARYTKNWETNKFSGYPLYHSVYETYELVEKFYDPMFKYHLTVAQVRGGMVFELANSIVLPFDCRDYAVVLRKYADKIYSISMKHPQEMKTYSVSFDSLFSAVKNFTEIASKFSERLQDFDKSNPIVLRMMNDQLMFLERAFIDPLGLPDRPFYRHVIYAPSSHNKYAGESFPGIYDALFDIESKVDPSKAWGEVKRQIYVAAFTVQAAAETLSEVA

Molecule: O=C(O)CCC(CP(=O)(O)O)C(=O)O (centres unmarked) [2-PMPA, 2‐(phosphonomethyl)pentanedioic acid]
Ki [1, 4]: 0.56 ± 0.05 nM

Ki [1]: 0.1 ± 0.01 nM
Ki [2, 4]: 0.018 ± 0.002 nM
Molecule: O=C(O)CCc1ccc(O)c(CN(CCN(CC(=O)O)Cc2cc(CCC(=O)NCCCCCC(=O)NCCCC[C@H](NC(=O)N[C@@H](CCC(=O)O)C(=O)O)C(=O)O)ccc2O)CC(=O)O)c1 [DKFZ-PSMA-11]

Molecule: N[C@@H](Cn1oc(=O)[nH]c1=O)C(=O)O [Quisqualate]
Ki [1]: 580 ± 60 nM
Ki [2]: 520 ± 80 nM

Ki [1]: 5.9 ± 0.9 nM
Molecule: CC(C)C[C@H](NC(=O)N[C@@H](CCC(=O)O)C(=O)O)C(=O)O [ZJ-43, (S)‐2‐(3‐((S)‐1‐carboxy‐3‐methylbutyl)ureido)pentanedioic acid]

K i (Avi-mGCPII) (nM) [1, 4]: 24 000 ± 3000 nM
K i (Avi-hGCPII) (nM) [2, 4]: 16 000 ± 5000 nM
Molecule: O=C(O)CC[C@H](NC(=O)C(O)(CC(=O)O)CC(=O)O)C(=O)O [β-citryl-L-glutamate]

Molecule: Avi-hGCPII (recombinant extracellular human GCPII) (Homo sapiens)
Km [3]: 0.55 ± 0.06 µM
kcat [3]: 1.45 ± 0.04 s⁻¹
kcat/Km [3]: 2.65e+06 ± 70000 M⁻¹ s⁻¹

B1: Avi-mGCPII (recombinant extracellular mouse GCPII) (Mus musculus) (protein)
chain: KPSNEATGNVSHSGMKKEFLHELKAENIKKFLYNFTRTPHLAGTQNNFELAKQIHDQWKEFGLDLVELSHYDVLLSYPNKTHPNYISIINEDGNEIFKTSLSEQPPPGYENISDVVPPYSAFSPQGTPEGDLVYVNYARTEDFFKLEREMKISCSGKIVIARYGKVFRGNMVKNAQLAGAKGMILYSDPADYFVPAVKSYPDGWNLPGGGVQRGNVLNLNGAGDPLTPGYPANEHAYRHELTNAVGLPSIPVHPIGYDDAQKLLEHMGGPAPPDSSWKGGLKVPYNVGPGFAGNFSTQKVKMHIHSYTKVTRIYNVIGTLKGALEPDRYVILGGHRDAWVFGGIDPQSGAAVVHEIVRSFGTLKKKGRRPRRTILFASWDAEEFGLLGSTEWAEEHSRLLQERGVAYINADSSIEGNYTLRVDCTPLMYSLVYNLTKELQSPDEGFEGKSLYDSWKEKSPSPEFIGMPRISKLGSGNDFEVFFQRLGIASGRARYTKNWKTNKVSSYPLYHSVYETYELVVKFYDPTFKYHLTVAQVRGAMVFELANSIVLPFDCQSYAVALKKYADTIYNISMKHPQEMKAYMISFDSLFSAVNNFTDVASKFNQRLQELDKSNPILLRIMNDQLMYLERAFIDPLGLPGRPFYRHIIYAPSSHNKYAGESFPGIYDALFDISSKVNASKAWNEVKRQISIATFTVQAAAETLREVA
notes: extracellular domain (45-752), N-terminal biotinylated Avi-tag with TEV site, secreted from Drosophila S2 cells, streptavidin mutein purification
Km (radioenzymatic assay): 1.9 ± 0.1 µM
kcat (radioenzymatic assay): 1.44 ± 0.02 s⁻¹
kcat/Km (radioenzymatic assay): 770000 ± 10000 M⁻¹ s⁻¹
Km (HPLC assay): 0.29 ± 0.02 µM
kcat (HPLC assay): 3.63 ± 0.09 s⁻¹
kcat/Km (HPLC assay): 1.26e+07 ± 800000 M⁻¹ s⁻¹
